{"source": "paper PMC4837482", "about": "“The complex binding mode of the peptide hormone H2 relaxin to its receptor RXFP1” (Nature Communications, 2016)", "assay_in_all_cases": "cAMP activity assay (pCRE β-galactosidase reporter), transfected HEK293T cells", "format_in_all_cases": "cell-based", "key": {"RXFP1 K52A": {"biological_target": "T1, RXFP1 K52A (Homo sapiens, UniProt Q9HBX9, K74A)", "T1 construct": "cells expressing full-length RXFP1 and mutants; expressed in transfected cells; host or cells: HEK293T", "T1 sequence (Q9HBX9 23-757 K74A limits assumed)": "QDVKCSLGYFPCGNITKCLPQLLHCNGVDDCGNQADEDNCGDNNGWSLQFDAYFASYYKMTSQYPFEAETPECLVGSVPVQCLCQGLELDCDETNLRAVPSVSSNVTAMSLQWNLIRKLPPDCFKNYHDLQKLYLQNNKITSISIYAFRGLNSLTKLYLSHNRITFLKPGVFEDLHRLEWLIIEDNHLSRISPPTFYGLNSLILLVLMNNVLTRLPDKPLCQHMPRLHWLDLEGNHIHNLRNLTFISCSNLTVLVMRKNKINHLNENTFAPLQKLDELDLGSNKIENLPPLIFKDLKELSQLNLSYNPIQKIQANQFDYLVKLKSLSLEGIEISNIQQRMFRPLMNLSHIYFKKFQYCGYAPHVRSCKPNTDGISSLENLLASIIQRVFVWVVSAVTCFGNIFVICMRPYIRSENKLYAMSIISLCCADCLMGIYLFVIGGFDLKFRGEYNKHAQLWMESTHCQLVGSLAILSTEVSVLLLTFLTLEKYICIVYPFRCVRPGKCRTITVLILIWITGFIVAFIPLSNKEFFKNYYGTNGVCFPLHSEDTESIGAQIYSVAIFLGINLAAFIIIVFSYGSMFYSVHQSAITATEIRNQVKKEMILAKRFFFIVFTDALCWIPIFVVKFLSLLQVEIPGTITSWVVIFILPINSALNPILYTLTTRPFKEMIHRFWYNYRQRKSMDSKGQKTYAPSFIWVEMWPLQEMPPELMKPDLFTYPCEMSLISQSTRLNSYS", "conditions": "construct K52A, ±s.e.m.", "procedure,_shortened": "(§1)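 HEK293T cells transfected with mutant RXFP1 and pCRE β-galactosidase reporter, stimulated with H2 relaxin in minimal media/1% DMSO. β-Galactosidase read with chlorophenol red-β-D-galactopyranoside at 570 nm; responses pooled from ≥3 triplicate experiments as % of 5 μM forskolin maximum.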"}, "RXFP1 G41A": {"biological_target": "T2, RXFP1 G41A (Homo sapiens, UniProt Q9HBX9, G63A)", "T2 construct": "transiently transfected human embryonic kidney (HEK) 293T cells expressing full-length RXFP1 and mutants; expressed in transfected cells; host or cells: HEK293T", "T2 sequence (Q9HBX9 23-757 G63A limits assumed)": "T1 sequence (Q9HBX9 23-757 K74A limits assumed) with G41A, A52K", "conditions": "construct G41A, ±s.e.m.", "procedure,_shortened": "as §1"}, "RXFP1 E67A^ins": {"biological_target": "T3, RXFP1 E67A^ins (Homo sapiens, UniProt Q9HBX9, INS89A)", "T3 construct": "transiently transfected human embryonic kidney (HEK) 293T cells expressing full-length RXFP1 and mutants; expressed in transfected cells; host or cells: HEK293T", "T3 sequence (Q9HBX9 with tags, fused parts or gaps INS89A limits assumed)": "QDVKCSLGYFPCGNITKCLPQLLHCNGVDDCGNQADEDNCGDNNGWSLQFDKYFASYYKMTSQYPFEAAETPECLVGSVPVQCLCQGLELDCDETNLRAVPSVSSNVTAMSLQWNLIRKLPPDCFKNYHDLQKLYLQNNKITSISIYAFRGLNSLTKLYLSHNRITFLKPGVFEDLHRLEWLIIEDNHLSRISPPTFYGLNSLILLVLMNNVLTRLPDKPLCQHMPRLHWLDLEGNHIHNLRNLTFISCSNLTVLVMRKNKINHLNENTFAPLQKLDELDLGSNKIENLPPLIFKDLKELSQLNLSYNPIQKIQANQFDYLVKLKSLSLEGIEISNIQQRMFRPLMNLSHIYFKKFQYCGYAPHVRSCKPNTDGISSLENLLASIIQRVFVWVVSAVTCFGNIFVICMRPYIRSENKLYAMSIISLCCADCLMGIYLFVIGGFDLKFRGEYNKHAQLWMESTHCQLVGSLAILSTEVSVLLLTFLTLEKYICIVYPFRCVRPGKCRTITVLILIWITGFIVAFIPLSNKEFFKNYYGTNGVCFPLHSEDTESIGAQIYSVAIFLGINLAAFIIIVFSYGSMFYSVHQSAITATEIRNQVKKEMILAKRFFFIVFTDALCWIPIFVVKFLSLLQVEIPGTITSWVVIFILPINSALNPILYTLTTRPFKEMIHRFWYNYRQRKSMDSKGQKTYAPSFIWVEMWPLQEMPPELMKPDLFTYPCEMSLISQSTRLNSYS", "conditions": "construct E67A^ins, ±s.e.m.", "procedure,_shortened": "as §1"}, "[1]": {"conditions": "percentage of maximum response to 5 μM Forskolin"}}, "note": "Residue numbers refer to the chain shown, from its start."}
{"substance": "H2 relaxin: two-chain 6-kDa peptide hormone structurally related to insulin; recombinant human gene-2 H2 relaxin provided by Corthera", "values": [{"measurement": "H2 relaxin pEC50", "setting": "RXFP1 K52A; cAMP reporter", "result": "11.06±0.11"}, {"measurement": "H2 relaxin Emax", "setting": "RXFP1 K52A; [1]", "result": "154.63±33.73 (5) %"}, {"measurement": "H2 relaxin pEC50", "setting": "RXFP1 G41A; cAMP reporter", "result": "11.13±0.1 (3)"}, {"measurement": "H2 relaxin Emax", "setting": "RXFP1 G41A; [1]", "result": "104.7±1.65 (3) %"}, {"measurement": "H2 relaxin pEC50", "setting": "RXFP1 E67A^ins; cAMP reporter", "result": "11.32±0.04 (3)"}, {"measurement": "H2 relaxin Emax", "setting": "RXFP1 E67A^ins; [1]", "result": "110.15±6.43(3) %"}]}
